Reference: patent US20150299281A1 (ZEALAND PHARMA A S, published 2015)
Square brackets hold non-standard residues; d marks the D form. pGlu = O=C1CC[C@@H](C(=O)O)N1; Aib = CC(C)(N)C(=O)O

B1: Compound 7 (peptide)
peptide: H-YGEGTFTSDYSIYLDKKAQRAFVNWLLA[Aib]K-NH2
SMILES: CC[C@H](C)[C@H](NC(=O)[C@H](CO)NC(=O)[C@H](Cc1ccc(O)cc1)NC(=O)[C@H](CC(=O)O)NC(=O)[C@H](CO)NC(=O)[C@@H](NC(=O)[C@H](Cc1ccccc1)NC(=O)[C@@H](NC(=O)CNC(=O)[C@H](CCC(=O)O)NC(=O)CNC(=O)[C@@H](N)Cc1ccc(O)cc1)[C@@H](C)O)[C@@H](C)O)C(=O)N[C@@H](Cc1ccc(O)cc1)C(=O)N[C@@H](CC(C)C)C(=O)N[C@@H](CC(=O)O)C(=O)N[C@@H](CCCCN)C(=O)N[C@@H](CCCCN)C(=O)N[C@@H](C)C(=O)N[C@@H](CCC(N)=O)C(=O)N[C@@H](CCCNC(=N)N)C(=O)N[C@@H](C)C(=O)N[C@@H](Cc1ccccc1)C(=O)N[C@H](C(=O)N[C@@H](CC(N)=O)C(=O)N[C@@H](Cc1c[nH]c2ccccc12)C(=O)N[C@@H](CC(C)C)C(=O)N[C@@H](CC(C)C)C(=O)N[C@@H](C)C(=O)NC(C)(C)C(=O)N[C@@H](CCCCN)C(N)=O)C(C)C
B2: Compound 8 (peptide)
peptide: H-Y[Aib]EGTFSSDYSIYLDKKAQRAFVNWLLA[Aib]K-NH2
SMILES: CC[C@H](C)[C@H](NC(=O)[C@H](CO)NC(=O)[C@H](Cc1ccc(O)cc1)NC(=O)[C@H](CC(=O)O)NC(=O)[C@H](CO)NC(=O)[C@H](CO)NC(=O)[C@H](Cc1ccccc1)NC(=O)[C@@H](NC(=O)CNC(=O)[C@H](CCC(=O)O)NC(=O)C(C)(C)NC(=O)[C@@H](N)Cc1ccc(O)cc1)[C@@H](C)O)C(=O)N[C@@H](Cc1ccc(O)cc1)C(=O)N[C@@H](CC(C)C)C(=O)N[C@@H](CC(=O)O)C(=O)N[C@@H](CCCCN)C(=O)N[C@@H](CCCCN)C(=O)N[C@@H](C)C(=O)N[C@@H](CCC(N)=O)C(=O)N[C@@H](CCCNC(=N)N)C(=O)N[C@@H](C)C(=O)N[C@@H](Cc1ccccc1)C(=O)N[C@H](C(=O)N[C@@H](CC(N)=O)C(=O)N[C@@H](Cc1c[nH]c2ccccc12)C(=O)N[C@@H](CC(C)C)C(=O)N[C@@H](CC(C)C)C(=O)N[C@@H](C)C(=O)NC(C)(C)C(=O)N[C@@H](CCCCN)C(N)=O)C(C)C
B3: Compound 6 (peptide)
peptide: [pGlu]YAEGTFTSDYSIYLDKKAQRAFVNWLLA[Aib]K-NH2
SMILES: CC[C@H](C)[C@H](NC(=O)[C@H](CO)NC(=O)[C@H](Cc1ccc(O)cc1)NC(=O)[C@H](CC(=O)O)NC(=O)[C@H](CO)NC(=O)[C@@H](NC(=O)[C@H](Cc1ccccc1)NC(=O)[C@@H](NC(=O)CNC(=O)[C@H](CCC(=O)O)NC(=O)[C@H](C)NC(=O)[C@H](Cc1ccc(O)cc1)NC(=O)[C@@H]1CCC(=O)N1)[C@@H](C)O)[C@@H](C)O)C(=O)N[C@@H](Cc1ccc(O)cc1)C(=O)N[C@@H](CC(C)C)C(=O)N[C@@H](CC(=O)O)C(=O)N[C@@H](CCCCN)C(=O)N[C@@H](CCCCN)C(=O)N[C@@H](C)C(=O)N[C@@H](CCC(N)=O)C(=O)N[C@@H](CCCNC(=N)N)C(=O)N[C@@H](C)C(=O)N[C@@H](Cc1ccccc1)C(=O)N[C@H](C(=O)N[C@@H](CC(N)=O)C(=O)N[C@@H](Cc1c[nH]c2ccccc12)C(=O)N[C@@H](CC(C)C)C(=O)N[C@@H](CC(C)C)C(=O)N[C@@H](C)C(=O)NC(C)(C)C(=O)N[C@@H](CCCCN)C(N)=O)C(C)C

Assays:
human GIP receptor = biological target: T1, human GIP receptor (human, UniProt P48546 22-466); assay: cell-based or functional assay
T1 sequence (looked up): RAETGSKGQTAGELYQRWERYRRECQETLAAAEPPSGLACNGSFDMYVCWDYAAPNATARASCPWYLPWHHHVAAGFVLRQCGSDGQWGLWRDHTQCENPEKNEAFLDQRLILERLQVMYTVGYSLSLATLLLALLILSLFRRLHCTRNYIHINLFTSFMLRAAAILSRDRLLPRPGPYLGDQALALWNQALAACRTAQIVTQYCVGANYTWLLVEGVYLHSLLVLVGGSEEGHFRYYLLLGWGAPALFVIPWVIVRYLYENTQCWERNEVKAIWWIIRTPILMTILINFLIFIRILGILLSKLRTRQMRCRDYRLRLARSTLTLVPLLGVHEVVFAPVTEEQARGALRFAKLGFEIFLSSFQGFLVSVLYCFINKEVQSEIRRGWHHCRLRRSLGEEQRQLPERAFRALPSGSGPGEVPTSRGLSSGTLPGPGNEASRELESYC

human GLP-1 receptor = human GLP-1 receptor (human, UniProt P43220 24-463); assay: cell-based or functional assay

EC50, cAMP induction in HEK293 cells expressing human GIP R (human GIP receptor) [nM]	EC50, cAMP induction in HEK293 cells expressing human GLP-1 R (human GLP-1 receptor) [nM]	Binder
0.21	0.024	B1
0.1	0.029	B2
0.27	0.97	B3
